Measured values from patent US20260167959A1, “APTAZYME-BASED REGULATABLE GENE EXPRESSION SYSTEMS” (REJUVENATE BIO INC, priority 2022, published 2026).

B1: RA204 (nucleic acid)
DNA: GCGCGTCCCGGAATACCAGCATCGTCTTGATGCCCTTGGAAGTCCGTGGATTCGCGGAAACGCGTACATCCAGCTGACGAGTCCCAAATAGGACGAAACGCGC
modifications: expressed or natural sequence
B2: RA206 (nucleic acid)
DNA: GCGCGTCCTGGATTCGCCGGAATACCAGCATCGTCTTGATGCCCTTGGAAGTCCGGCGGAAACGCGTACATCCAGCTGACGAGTCCCAAATAGGACGAAACGCGC
modifications: expressed or natural sequence
B3: RA218 (nucleic acid)
DNA: GCGCGTCCTGGATTCGCGGAAACGCGTACATCCAAGTGATACCAGCATCGTCTTGATGCCCTTGGCAGCACTGCTGACGAGTCCCAAATAGGACGAAACGCGC
modifications: expressed or natural sequence
B4: RA214 (nucleic acid)
DNA: GCGCGTCCTGGATTCGCGAGAATACCAGCATCGTCTTGATGCCCTTGGAAGTCTCGGAAACGCGTACATCCAGCTGACGAGTCCCAAATAGGACGAAACGCGC
modifications: expressed or natural sequence
B5: RA201 (nucleic acid)
DNA: GCGCGTCCTGGATTCGCGGAAACGCGAGAATACCAGCATCGTCTTGATGCCCTTGGAAGTCTCGCGTACATCCAGCTGACGAGTCCCAAATAGGACGAAACGCGC
modifications: expressed or natural sequence
B6: RA203 (nucleic acid)
DNA: GCGCGTCCTGGATTCGCGGAAACGCGTACATCCAGCTGACGAGTCCCAAATAGGAAGAATACCAGCATCGTCTTGATGCCCTTGGAAGTCTCGAAACGCGC
modifications: expressed or natural sequence
B7: RA207 (nucleic acid)
DNA: GCGCGTCCTGGATTCGCGGAAACGCGTACATCCAGCTGACGAGTCCCAAGAGAATACCAGCATCGTCTTGATGCCCTTGGAAGTCTCATAGGACGAAACGCGC
modifications: expressed or natural sequence
B8: RA208 (nucleic acid)
DNA: GCGCGTCCTGGATTCGCGGAAACGCGTACATCCAGCTGACGAGTCCCAAACCGGAATACCAGCATCGTCTTGATGCCCTTGGAAGTCCGGTAGGACGAAACGCGC
modifications: expressed or natural sequence
B9: RA221 (nucleic acid)
DNA: GCGCGTCCTGGATTCGCGGAAACGCGTACATCCAGCTGACGGAATACCAGCATCGTCTTGATGCCCTTGGAAGTCCGCGAGTCCCAAATAGGACGAAACGCGC
modifications: expressed or natural sequence
B10: RA205 (nucleic acid)
DNA: GCGCGTCCTGGATTCGCGGAAACGCGTACATCCAGCTGACGAGTCCCAAATAGGACGAAACGCGGAATACCAGCATCGTCTTGATGCCCTTGGAAGTCCGC
modifications: expressed or natural sequence
B11: RA216 (nucleic acid)
DNA: GCGCGTCCTGGATTCGCGGAAACGCGTACATCCAGCTGACGAGTCAGTGATACCAGCATCGTCTTGATGCCCTTGGCAGCACTCCAAATAGGACGAAACGCGC
modifications: expressed or natural sequence
B12: RA198 (nucleic acid)
DNA: GCGCGTCCTGAGAATACCAGCATCGTCTTGATGCCCTTGGAAGTCTGATTCGCGGAAACGCGTACATCCAGCTGACGAGTCCCAAATAGGACGAAACGCGC
modifications: expressed or natural sequence
B13: RA220 (nucleic acid)
DNA: GCCGAGAATACCAGCATCGTCTTGATGCCCTTGGAAGTCTCGGCGTCCTGGATTCGCGGAAACGCGTACATCCAGCTGACGAGTCCCAAATAGGACGAAACGCGC
modifications: expressed or natural sequence
B14: RA200 (nucleic acid)
DNA: GCGCGTCCTGGATTCGCGGAAACGCGTACATCCGAGAATACCAGCATCGTCTTGATGCCCTTGGAAGTCTCGCAGCTGACGAGTCCCAAATAGGACGAAACGCGC
modifications: expressed or natural sequence
B15: RA020 (nucleic acid)
DNA: GCGCGTCCTGGATTCGCGGAAACGCGTACATCGGAATACCAGCATCGTCTTGATGCCCTTGGAAGTCCGCCAGCTGACGAGTCCCAAATAGGACGAAACGCGC
modifications: expressed or natural sequence
B16: RA212 (nucleic acid)
DNA: GCGCGTCCTGGATTCAGAATACCAGCATCGTCTTGATGCCCTTGGAAGTCTGCGGAAACGCGTACATCCAGCTGACGAGTCCCAAATAGGACGAAACGCGC
modifications: expressed or natural sequence
B17: RA209 (nucleic acid)
DNA: GCGCGTCCTGGATTCGCGGAGAGAATACCAGCATCGTCTTGATGCCCTTGGAAGTCTCAACGCGTACATCCAGCTGACGAGTCCCAAATAGGACGAAACGCGC
modifications: expressed or natural sequence
B18: RA199 (nucleic acid)
DNA: GCGCGTCCTGGATTCGCGGAAACAGTGATACCAGCATCGTCTTGATGCCCTTGGCAGCACTGCGTACATCCAGCTGACGAGTCCCAAATAGGACGAAACGCGC
modifications: expressed or natural sequence
B19: RA222 (nucleic acid)
DNA: GCGCGTCCTGGATTCGCGGAAACGCGTACATCCAGCTGACAGAATACCAGCATCGTCTTGATGCCCTTGGAAGTCTGAGTCCCAAATAGGACGAAACGCGC
modifications: expressed or natural sequence
B20: RA202 (nucleic acid)
DNA: GCGCGTCCTGGATAGTGATACCAGCATCGTCTTGATGCCCTTGGCAGCACTTCGCGGAAACGCGTACATCCAGCTGACGAGTCCCAAATAGGACGAAACGCGC
modifications: expressed or natural sequence
B21: RA224 (nucleic acid)
DNA: GCGCGTCCTGGATTCGCGGAAACGCGTACATCCAGCTGACGAGTCCCAAATAGAGAATACCAGCATCGTCTTGATGCCCTTGGAAGTCTGACGAAACGCGC
modifications: expressed or natural sequence
B22: RA211 (nucleic acid)
DNA: GCGCGTCCTGGATTCGGGAATACCAGCATCGTCTTGATGCCCTTGGAAGTCCCGGAAACGCGTACATCCAGCTGACGAGTCCCAAATAGGACGAAACGCGC
modifications: expressed or natural sequence
B23: RA223 (nucleic acid)
DNA: GCGCGTCCTGCGAGAATACCAGCATCGTCTTGATGCCCTTGGAAGTCTCGGATTCGCGGAAACGCGTACATCCAGCTGACGAGTCCCAAATAGGACGAAACGCGC
modifications: expressed or natural sequence
B24: RA219 (nucleic acid)
DNA: GCGCGTCCTGGATTCGCGGAAACGCGTACATCCAGCGGAATACCAGCATCGTCTTGATGCCCTTGGAAGTCCTGACGAGTCCCAAATAGGACGAAACGCGC
modifications: expressed or natural sequence
B25: RA217 (nucleic acid)
DNA: GCGCGTCCTGGATTCCGAGAATACCAGCATCGTCTTGATGCCCTTGGAAGTCTCGGCGGAAACGCGTACATCCAGCTGACGAGTCCCAAATAGGACGAAACGCGC
modifications: expressed or natural sequence
B26: RA021 (nucleic acid)
DNA: GCGCGTCCTGGATTCGCGGAAACGCGTACATCCAGCTGACGAGTCCCAAATAGAGTGATACCAGCATCGTCTTGATGCCCTTGGCAGCACTGACGAAACGCGC
modifications: expressed or natural sequence
B27: RA213 (nucleic acid)
DNA: GCGCGTCCTGGATTCGCGGAAACGCGTACATCCAGCTCGAGAATACCAGCATCGTCTTGATGCCCTTGGAAGTCTCGGACGAGTCCCAAATAGGACGAAACGCGC
modifications: expressed or natural sequence

The molecules below were run on Renilla luciferase RNA (assay: Barcoded aptazyme variant library screen: un-cleaved Renilla luciferase RNA by barcode read counts, HEK293-T cells). Details: un-cleaved Renilla luciferase RNA, HEK293-T cells cultured with 1 mM theophylline (ON) over without theophylline (OFF); barcode read counts, triplicate.
Assay type: cell-based
Method in brief: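 Aptazyme variants (seven theophylline aptamers inserted after each T3H48 ribozyme nucleotide, 9-nt barcoded) cloned into the 3′ UTR of Renilla luciferase in psiCHECK-2; cells cultured ± theophylline, in triplicate. RNA and DNA barcodes amplified and sequenced; normalized read counts gave un-cleaved RNA fraction and ON/OFF fold-change.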

B1 and B2 are the same in “Fold change in RNA expression between the ON state and the OFF state” value (shortened to “Fold change”): 1.2 fold for the first, 1.2 fold for the second.

B3 and B4 are the same in “Fold change” value: 1.2 fold for the first, 1.2 fold for the second.

B5 and B6 are the same in “Fold change” value: 1.2 fold for the first, 1.2 fold for the second.

B7 and B8 are the same in “Fold change” value: 1.2 fold for the first, 1.2 fold for the second.

B9 and B10 are the same in “Fold change” value: 1.2 fold for the first, 1.2 fold for the second.

B11 and B12 are the same in “Fold change” value: 1.2 fold for the first, 1.2 fold for the second.

B13 and B14 are the same in “Fold change” value: 1.2 fold for the first, 1.2 fold for the second.

Compared with B15, B16 is lower in “Fold change” value: 2.7 fold for the first, 1.2 fold for the second.

B17 and B18 are the same in “Fold change” value: 1.2 fold for the first, 1.2 fold for the second.

B19 and B20 are the same in “Fold change” value: 1.2 fold for the first, 1.2 fold for the second.

Compared with B21, B22 is higher in “Fold change” value: 1.1 fold for the first, 1.2 fold for the second.

B23 and B24 are the same in “Fold change” value: 1.2 fold for the first, 1.2 fold for the second.

Going from B25 to B26, the “Fold change” value rises from 1.2 fold to 2.7 fold.

With B27 the “Fold change” value was 1.2 fold.
